Measurements from publication PMC5076370.

Columns and labels:
[1] = biological target: GoxA precursor protein lacking CTQ (Marinomonas mediterranea); experiment: SEC
[2] = biological target: active GoxA with mature CTQ (Marinomonas mediterranea); experiment: SEC

stoichiometry N (GoxB per GoxA precursor) [1]	stoichiometry N [2]	Substance
1	–	GoxB (enzyme)
–	2	active GoxA with mature CTQ (enzyme)
